Experimental findings from the RNAGym collection of RNA variant scans (doi:10.7554/elife.80360) are described below.

The labels stand for the following.
B1: CPEB3 Ribozyme (parent)
chain: GGGGGCCACAGCAGAAGCGUUCACGUCGCGGCCCCUGUCAGAUUCUGGUGAAUCUGCGAAUUCUGCUGU

The data set covers variants of B1. Kind of data set: self-cleavage, relative activity (ratio to wild type); higher = more cleavage; co-transcriptional.
For the variant C18U C66G, the self-cleavage was found to be 0.341.

In the case of G17A G47U, the self-cleavage is 0.562.

Consider G17C U61A, for which the self-cleavage was 0.132.

For G19A G47A, the self-cleavage was 0.122.

In the case of G19A G47U, the self-cleavage came to 0.12.

As to G17U U61G, the self-cleavage was determined as 0.344.

For the variant G17U U61C, the self-cleavage stood at 0.186.

For C18A U55C, the self-cleavage is 0.21.

C18U U43A: the self-cleavage was 0.549.

Turning to G19A U62C, the self-cleavage turned out to be 0.231.

For C18A G37C, the self-cleavage is 0.213.

Turning to G17A G56U, the self-cleavage was found to be 0.178.

On to G17A G56C, for which the self-cleavage was 0.238.

Regarding G17A G56A, the self-cleavage is 0.234.

For G17U C66U, the self-cleavage was found to be 0.412.

On to G17U C66A, for which the self-cleavage was found to be 0.239.

As for C18G A40G, the self-cleavage amounted to 0.122.

Regarding C18G A59C, the self-cleavage amounted to 0.149.

Regarding G17A U67C, the self-cleavage came to 0.491.

As to G19A U20C, the self-cleavage stood at 0.166.

On to G19A U20A, for which the self-cleavage was 0.145.

Consider G17U U36C, for which the self-cleavage turned out to be 0.252.

Consider G17U U64A, for which the self-cleavage stood at 0.201.

Take G17U U64G: the self-cleavage is 0.183.

In the case of G17U C32G, the self-cleavage was determined as 0.135.

G17U C32U: the self-cleavage is 0.514.

With G17C A52C, the self-cleavage was determined as 0.126.

On to G17U A42G, for which the self-cleavage turned out to be 0.353.

Turning to C18U U49A, the self-cleavage turned out to be 0.914.

Take C18U U49C: the self-cleavage was found to be 0.864.

C18A U69C: the self-cleavage came to 0.517.

With C18G G50C, the self-cleavage is 0.201.

For C18U U69A, the self-cleavage came to 0.944.

Regarding C18G U46G, the self-cleavage is 0.226.

With G19A U26G, the self-cleavage amounted to 0.19.

With G19A U26C, the self-cleavage is 0.0939.

Take G17A G37U: the self-cleavage worked out at 0.146.

Regarding C18G G28A, the self-cleavage was found to be 0.133.

C18U G58C: the self-cleavage came to 0.852.

Consider G17A U20A, for which the self-cleavage is 0.0639.

Take G17A U20G: the self-cleavage turned out to be 0.098.

C18G G19C: the self-cleavage came to 0.0934.

In the case of C18U C45U, the self-cleavage came out at 0.877.

C18U C45G: the self-cleavage was found to be 0.778.

Consider G17A G30C, for which the self-cleavage was 0.161.

As to C18A C24G, the self-cleavage was 0.186.

For C18A U49C, the self-cleavage came out at 0.195.

Turning to C18A U49A, the self-cleavage worked out at 0.16.

Turning to C18U A59U, the self-cleavage was found to be 0.445.

Regarding C18U A59C, the self-cleavage stood at 0.32.

For the variant G17U C34A, the self-cleavage turned out to be 0.195.

For G17C U62C, the self-cleavage is 0.194.

Take C18U A42U: the self-cleavage was 0.687.

For the variant G19A G68A, the self-cleavage worked out at 0.18.

Regarding G19A G68C, the self-cleavage turned out to be 0.209.

As for C18U A60C, the self-cleavage came to 0.288.

For C18U A60U, the self-cleavage worked out at 0.318.

Regarding G17A G31A, the self-cleavage amounted to 0.158.

G19A C63U: the self-cleavage was 0.116.

For the variant G17C C22U, the self-cleavage was determined as 0.145.

For the variant C18U C57U, the self-cleavage came to 0.3.

Turning to G19A U21G, the self-cleavage stood at 0.14.

G19A U21A: the self-cleavage is 0.143.

Take G19A U21C: the self-cleavage stood at 0.164.

On to G17U U43G, for which the self-cleavage amounted to 0.163.

On to G17U U43A, for which the self-cleavage is 0.218.

Take C18U A51C: the self-cleavage worked out at 0.771.

Take G19A C45U: the self-cleavage was 0.167.

Regarding G19A C45A, the self-cleavage was 0.121.

As to C18A U64A, the self-cleavage amounted to 0.108.

For the variant C18A U64C, the self-cleavage amounted to 0.14.

For G17C G31A, the self-cleavage came to 0.111.

Take G17C U67A: the self-cleavage worked out at 0.204.

Take G17U A40G: the self-cleavage turned out to be 0.352.

As for G17U A40C, the self-cleavage was 0.147.

As for C18A U44C, the self-cleavage was determined as 0.106.

For the variant G17U G30A, the self-cleavage was determined as 0.184.

Turning to G17C C57G, the self-cleavage worked out at 0.0859.

Turning to C18G G56A, the self-cleavage was 0.107.

C18G G56C: the self-cleavage amounted to 0.101.

As for C18G A23U, the self-cleavage turned out to be 0.22.

C18G A23G: the self-cleavage amounted to 0.0901.

For G17A U38A, the self-cleavage came out at 0.241.

For C18A A59U, the self-cleavage came out at 0.123.

Consider C18A A59G, for which the self-cleavage is 0.145.

Consider C18G C39A, for which the self-cleavage is 0.184.

Consider C18G C39G, for which the self-cleavage turned out to be 0.101.

For the variant C18G C39U, the self-cleavage was found to be 0.196.

C18U U53G: the self-cleavage stood at 0.633.

Regarding C18U U53A, the self-cleavage is 0.632.

Regarding G17C G68U, the self-cleavage is 0.21.

Consider G17C G41A, for which the self-cleavage is 0.136.

Turning to C18A G41A, the self-cleavage worked out at 0.156.

Take G19A C33G: the self-cleavage came out at 0.172.

Consider C18U C35U, for which the self-cleavage was 0.687.

For C18A A60G, the self-cleavage turned out to be 0.195.

In the case of C18A A60C, the self-cleavage amounted to 0.0911.

On to G19A A60G, for which the self-cleavage amounted to 0.161.

C18A C63A: the self-cleavage came to 0.119.

Consider C18G U20A, for which the self-cleavage was determined as 0.0787.

As for G17C C54U, the self-cleavage turned out to be 0.145.

G17C U38A: the self-cleavage turned out to be 0.155.

On to C18G G37A, for which the self-cleavage was found to be 0.119.

With G17C C18G, the self-cleavage came out at 0.148.

For G17C C18A, the self-cleavage came to 0.118.

For G17U C57G, the self-cleavage was 0.16.

In the case of G17U C57A, the self-cleavage was 0.192.

Take C18U G28C: the self-cleavage is 0.174.

Take C18U G28U: the self-cleavage was 0.206.

With G17C U69C, the self-cleavage turned out to be 0.284.

As for C18G G58A, the self-cleavage is 0.104.

G17U U55C: the self-cleavage stood at 0.227.

Take G19A C35U: the self-cleavage was found to be 0.188.

With G19A C35A, the self-cleavage came to 0.181.

As to G19A U44C, the self-cleavage is 0.16.

For G17U G68C, the self-cleavage is 0.818.

For G17U G68U, the self-cleavage was 0.768.

For C18G U67G, the self-cleavage was determined as 0.229.

On to C18G G68U, for which the self-cleavage amounted to 0.311.

As for G17C G65C, the self-cleavage turned out to be 0.195.

Regarding G17U C39U, the self-cleavage was found to be 0.278.

G17A U43G: the self-cleavage came out at 0.177.

In the case of G17A U43A, the self-cleavage amounted to 0.253.

G17A U43C: the self-cleavage worked out at 0.336.

Regarding G19A U53C, the self-cleavage was found to be 0.15.

As for G19A U53G, the self-cleavage was 0.18.

Turning to C18U G37U, the self-cleavage turned out to be 0.198.

C18A U20G: the self-cleavage amounted to 0.0591.

As to C18A U20A, the self-cleavage is 0.193.

For the variant C18A U61C, the self-cleavage is 0.158.

As to G19A U43A, the self-cleavage was determined as 0.108.

Regarding G19A U43C, the self-cleavage was found to be 0.116.

As for G19A A40G, the self-cleavage came to 0.17.

Take G17C G50C: the self-cleavage came out at 0.111.

On to C18G C57G, for which the self-cleavage was 0.17.

On to G19A G48C, for which the self-cleavage was 0.188.

On to C18U C29G, for which the self-cleavage came to 0.132.

Turning to G17U U53C, the self-cleavage came out at 0.188.

For the variant C18G C24U, the self-cleavage was 0.106.

On to C18G C24G, for which the self-cleavage stood at 0.107.

With C18A U26C, the self-cleavage came to 0.17.

In the case of C18A U26G, the self-cleavage is 0.118.

Turning to C18G U62G, the self-cleavage worked out at 0.173.

For the variant C18U C34G, the self-cleavage turned out to be 0.426.

As to C18U C34U, the self-cleavage was determined as 0.919.

Consider G17U U21C, for which the self-cleavage turned out to be 0.14.

On to G17C C32G, for which the self-cleavage worked out at 0.0951.

As to G17A G48A, the self-cleavage was determined as 0.611.

For G17A G48U, the self-cleavage came out at 0.614.

With C18G U44C, the self-cleavage was 0.125.

In the case of C18G U44G, the self-cleavage is 0.169.

Regarding C18A G65C, the self-cleavage was determined as 0.217.

As for G17A U55C, the self-cleavage is 0.141.

Consider G17A U55A, for which the self-cleavage was found to be 0.195.

Regarding G17U C33G, the self-cleavage was 0.224.

For G19A A51C, the self-cleavage was 0.161.

Take G19A A51G: the self-cleavage is 0.172.

Turning to C18A C66U, the self-cleavage came to 0.153.

Turning to C18A C66G, the self-cleavage is 0.147.

For the variant C18A C66A, the self-cleavage was 0.13.

With C18G U21A, the self-cleavage stood at 0.217.

Consider C18U C22A, for which the self-cleavage is 0.0833.

Consider G19A C22A, for which the self-cleavage was determined as 0.104.

In the case of C18A A40C, the self-cleavage is 0.197.

In the case of G17U A52U, the self-cleavage turned out to be 0.429.

As to C18A U38G, the self-cleavage was 0.212.

As to G19A U38G, the self-cleavage came to 0.156.
